US20150218281A1 (Ablynx, published 2015)
Positions count from the first letter of the chain named.

T1: recombinant human OX40L (extracellular domain, R&D Systems) (human, UniProt P23510 51-183)
T1 construct: also called hOX40L; rec. hOX40L
T1 sequence: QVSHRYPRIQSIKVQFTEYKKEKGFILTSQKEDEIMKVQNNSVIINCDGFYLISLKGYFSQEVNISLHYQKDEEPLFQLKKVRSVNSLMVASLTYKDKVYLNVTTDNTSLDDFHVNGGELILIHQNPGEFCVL

T2: full length human OX40L expressed on CHO cells (human, UniProt P23510 1-183)
T2 construct: CHO K1 stably transfected as described for CAKI cells; also called CHO-hOX40L; hOX40L expressing CHO cells
T2 sequence: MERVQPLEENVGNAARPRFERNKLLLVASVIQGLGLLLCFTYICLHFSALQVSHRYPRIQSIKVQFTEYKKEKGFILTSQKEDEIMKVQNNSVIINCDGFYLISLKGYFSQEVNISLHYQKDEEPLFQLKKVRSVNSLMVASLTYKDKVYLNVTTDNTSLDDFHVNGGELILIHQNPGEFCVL

T3: biotinylated hOX40L (R&D Systems, biotinylated in house) (human, UniProt P23510 51-183, biotinylated with Sulfo-NHS-LC-Biotin, sites not stated)
T3 construct: same bought protein as m10, biotinylated; also called biotinylated OX40L
T3 sequence: T1 sequence

T4: cynomolgus OX40L expressed on CHO cells (cynomolgus monkey, UniProt P23510 1-183 (human entry))
T4 construct: also called cynoOX40L; CHO-cynoOX40L
T4 chain: T2 sequence with R55Q, K73E

B1: OX40L15B07 (VHH)
VHH: EVQLVESGGGLVQAGGSLRLSCAASRSIGRLDRMGWYRHRTGEPRELVATITGGSSINYGDFVKGRFTISIDNAKNTVYLQMNNLKPEDTAVYYCNFNKYVTSRDTWGQGTQVTVSS
notes: monovalent Nanobody from E. coli; not shown: C-terminal c-myc and His6 tag
B2: OX40L01B11 (VHH)
VHH: EVQLVESGGGLVQAGGSLRLSCVASGRSFSTYIMGWFRQAPGKEREFVATISRSGITTRSADSVKGRFTISRDNAKNTVYLQMNSLKPEDTAVYYCAAGPYVEQTLGLYQTLGPWDYWGQGTQVTVSS
notes: as for B1
B3: OX40L01E07 (VHH)
VHH: EVQLVESGGGLVQAGGSLRLSCAASGRTFSSIYAKGWFRQAPGKEREFVAAISRSGRSTSYADSVKGRFTISRDNAKNTVYLQMNSLKPEDTAVYYCAAVGGATTVTASEWDYWGLGTQVTVSS
notes: as for B1

Columns and labels:
[1] = biological target: T1, recombinant human OX40L (extracellular …); assay: SPR, second injection after competitor OX40L15B07
Protocol: (§1) In addition, it was investigated to what extend the 7 anti-OX40L Nanobodies have a different or identical or overlapping epitope. Standard conditions were as described above. […] 1300 RU. A dual injection was performed at 10 μl/min for 2 min, starting with 500 nM of the first Nanobody, followed by 500 nM of the second Nanobody. After 10 min dissociation, regeneration of the surface was performed by injection of 50 mM NaOH for 5-20 sec at 100 μl/min.

[2] = biological target: T1, recombinant human OX40L (extracellular …); assay: SPR, second injection after competitor OX40L19D08
Protocol: as §1

[3] = biological target: T1, recombinant human OX40L (extracellular …); assay: SPR, second injection after competitor OX40L01E07
Protocol: as §1

[4] = biological target: T2, full length human OX40L expressed on …; assay: competition FACS with hOX40/Fc on CHO-hOX40L
Protocol: The competition FACS assay was performed as described in example 2.

[5] = biological target: T1, recombinant human OX40L (extracellular …); assay: SPR, second injection after competitor OX40L01B11
Protocol: as §1

[6] = biological target: T1, recombinant human OX40L (extracellular …); assay: SPR, second injection after competitor OX40L18E09
Protocol: as §1

[7] = biological target: T3, biotinylated hOX40L (R&D Systems, …); assay: AlphaScreen, 120 pM biotinylated hOX40L + 0.2 nM hOX40/Fc
Protocol: (§2) Next, streptavidin donor beads were added and incubated for an additional 1 hour. Fluorescence was measured by reading plates on the EnVision Multilabel Plate Reader using an excitation wavelength of 680 nm and an emission wavelength of 520 nm.

[8] = biological target: T1, recombinant human OX40L (extracellular …); assay: SPR, after second injection of buffer HBS-EP+
Protocol: as §1

[9] = biological target: T1, recombinant human OX40L (extracellular …); assay: SPR, second injection after competitor OX40L01E10
Protocol: as §1

[10] = biological target: T2, full length human OX40L expressed on …; assay: FACS binding to CHO cells, anti-c-myc detection
Protocol: (§3) Transfection of CHO K1 with the respective expression plasmid DNA and selection of clones with high expression levels was performed as described in Example 1. Binding of the Nanobodies to the cell surface expressed OX40L was assessed by FACS analysis of cells as described below.
(§4) After washing bound Nanobodies were detected in FACSArray™ using mouse anti-c-myc and PE conjugated goat anti-mouse IgG.

[11] = biological target: T4, cynomolgus OX40L expressed on CHO cells; assay: FACS binding to CHO cells, anti-c-myc detection
Protocol: as §3, §4

[12] = biological target: T3, biotinylated hOX40L (R&D Systems, …); assay: AlphaScreen, 31 pM biotinylated hOX40L + 80 pM OX40/Fc
Protocol: as §2

[13] = biological target: T1, recombinant human OX40L (extracellular …); assay: SPR, second injection after competitor OX40L19A07
Protocol: as §1

[14] = biological target: T2, full length human OX40L expressed on …; assay: competition FACS, 3.1 nM hOX40/Fc on hOX40L expressing cells
[15] = biological target: T2, full length human OX40L expressed on …; assay: cell-based or functional assay
[16] = biological target: T3, biotinylated hOX40L (R&D Systems, …); assay: hOX40L/hOX40 AlphaScreen, native sample
Protocol: as §2
In the TSA assay, Nanobodies were diluted to a concentration of 0.2 mg/ml and melting temperature (Tm) was determined at different pH by stepwise increase in temperature in presence of Sypro Orange, a dye that binds to […] residues that become exposed upon unfolding of the protein, using the Lightcycler (Roche) for detection. […] In SEC analysis, the Nanobodies were analyzed on a Phenomenex matrix to allow detection of multimers, aggregates or ‘stickyness’.

Binder	Binding Level sample 2 (RU) [1] [RU]	Binding Level sample 2 - sample 1 (RU) [1] [RU]	Binding Level sample 2 (RU) [2] [RU]	Binding Level sample 2 - sample 1 (RU) [2] [RU]	Binding Level sample 2 (RU) [3] [RU]	Binding Level sample 2 - sample 1 (RU) [3] [RU]	IC50 [4] [nM]	Binding Level sample 2 (RU) [5] [RU]	Binding Level sample 2 - sample 1 (RU) [5] [RU]	Binding Level sample 2 (RU) [6] [RU]	Binding Level sample 2 - sample 1 (RU) [6] [RU]	IC50 [7] [nM]	Binding Level sample 2 (RU) [8] [RU]	Binding Level sample 2 - sample 1 (RU) [8] [RU]	Binding Level sample 2 (RU) [9] [RU]	Binding Level sample 2 - sample 1 (RU) [9] [RU]	EC50 [10] [nM]	EC50 [11] [nM]	IC50 [12] [nM]	Binding Level sample 2 (RU) [13] [RU]	also measured
B1	198	5	217	-7	198	12	2	324	-9	189	2	0.3	155	-40	237	17	2.43	3.23	0.125	200	Binding Level sample 2 - sample 1 (RU) [13]: 26 RU; IC50 [14]: 1.61 nM; IC50, IL4 production, T-cell activation assay, donor 1 [15]: 236 nM; IC50, IL4 production, T-cell activation assay, donor 2 [15]: 249 nM; IC50, IL4 production, T-cell activation assay, donor 3 [15]: 73 nM
B2	259	61	433	205	399	205	5	380	7	238	48	0.375	383	-57	296	76	2.94	3.39	0.278	358	IC50 [16]: 0.54 nM; Binding Level sample 2 - sample 1 (RU) [13]: 180 RU; IC50 [14]: 5.61 nM; IC50, IL4 production, T-cell activation assay, donor 1 [15]: 230 nM; IC50, IL4 production, T-cell activation assay, donor 2 [15]: 188 nM; IC50, IL4 production, T-cell activation assay, donor 3 [15]: 80 nM; IC50, IL4 production, T-cell activation assay, donor 4 [15]: 220 nM
B3	252	55	252	23	192	11	11	486	194	238	45	0.423	212	-9	289	62	4.03	4.9	0.229	240	IC50 [16]: 0.1 nM; Binding Level sample 2 - sample 1 (RU) [13]: 63 RU; IC50 [14]: 8.89 nM; IC50, IL4 production, T-cell activation assay, donor 1 [15]: 260 nM; IC50, IL4 production, T-cell activation assay, donor 2 [15]: 320 nM; IC50, IL4 production, T-cell activation assay, donor 3 [15]: 125 nM; IC50, IL4 production, T-cell activation assay, donor 4 [15]: 169 nM
